Laboratory results taken from paper PMC8420766, “Crystal structure of a MarR family protein from the psychrophilic bacterium Paenisporosarcina sp. TG-14 in complex with a lipid-like molecule” (IUCrJ, 2021).

Legend:
PaMarR [1] = molecular target: T1, PaMarR (Paenisporosarcina sp. TG-14, UniProt A0A8J9SKQ8); assay: X-ray crystal structure; format: binding; details: 1.6 A; co-purified from expression culture, not added; identity assigned from electron density; deep cavity in dimerization domain (helices a1, a6, a7), putative effector site; ammonium citrate pH 7.0
T1 construct: gene E2636_00495; N-terminal His6 tag (pET-28a(+), NdeI/XhoI) removed with thrombin; E. coli BL21(DE3); gene primer start TTGGATAAGAGAATAC (N-terminus M/L-DKRI)

[2] = molecular target: MarR protein from Paenisporosarcina sp. TG-14 (Paenisporosarcina sp. TG-14); assay: AUC; analytical ultracentrifugation at 40 000 rev/min, 20°C, detection at 280 nm, analysed with SEDFIT; one peak at a sedimentation coefficient of about 2.5 (31.3 kDa)
PaMarR [3] = molecular target: T2, PaMarR (Paenisporosarcina sp. TG-14, UniProt A0A8J9SKQ8 1-147); assay: EMSA; 0.3-2.1 uM PaMarR, 0.5 uM duplex; B1 (one site) at low, B2 (both sites) at high protein; protein contains palmitate; EMSA: Dulbecco's PBS, 12% (v/v) glycerol, 0.5 uM duplex, 15 min at 37 C, 20 ul; 8% native PAGE with 5% glycerol in Tris-borate; pH not stated; details: protein: recombinant; tags: N-terminal His6 (pET-28a NdeI/XhoI), removed with thrombin; chain copies: 2; label: none (GelRed stain); as printed: 52 bp duplex, 3' overhang 13 nt on strand 1 (second strand may be printed incompletely; Methods say complementary oligos)
T2 sequence: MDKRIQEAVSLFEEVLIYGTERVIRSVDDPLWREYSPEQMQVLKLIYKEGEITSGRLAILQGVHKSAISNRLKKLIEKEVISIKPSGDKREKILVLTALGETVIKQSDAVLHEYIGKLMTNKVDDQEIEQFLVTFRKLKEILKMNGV

## CCCCCCCCCCCCCCCC(=O)O [palmitic acid]
PaMarR [1]
  X-ray crystal structure: a model of palmitic acid containing a 16-carbon chain was built, which had the best fit

## MarR protein from Paenisporosarcina sp. TG-14 (natural protein)
[2]
  stoichiometry N: 2

B1: Palindrome probe (putative binding sites 1 and 2) (dsDNA)
DNA 1: TTTTAATAGTTCACCCCCTAAACTAACGTTATTGGTTTAGGGGGTGAACTATTATGCCCCCCATA
DNA 2: ATAGTTCACCCCCTAAACCAATAACGTTAGTTTAGGGGGTGAACTATTAAAA
PaMarR [3]
  binding result: binds
